The target in the experiment is T1, Cav3.2-GFP tagged calcium channel (human, UniProt O95180 1-2353).
T1 construct: also called Cav3.2 T-type calcium channel; source: tsA-201 cells, transfected (lipofectamine 2000), in lysate; not shown: GFP, C-terminal, kept
The experiment is described as follows: co-IP; tsA-201 cells co-expressing Cav3.2-GFP and mCherry-USP5 (WT or K113R); lysed in modified RIPA buffer (50 mM Tris, 100 mM NaCl, 0.2% Triton X-100, 0.2% NP-40, 10 mM EDTA, pH 7.5); Cav3.2-GFP precipitated with anti-GFP antibody and Protein G/A beads overnight at 4 °C; blot probed with mCherry antibody; densitometry. The note with it: partners not purified.

T1 sequence (O95180 whole entry): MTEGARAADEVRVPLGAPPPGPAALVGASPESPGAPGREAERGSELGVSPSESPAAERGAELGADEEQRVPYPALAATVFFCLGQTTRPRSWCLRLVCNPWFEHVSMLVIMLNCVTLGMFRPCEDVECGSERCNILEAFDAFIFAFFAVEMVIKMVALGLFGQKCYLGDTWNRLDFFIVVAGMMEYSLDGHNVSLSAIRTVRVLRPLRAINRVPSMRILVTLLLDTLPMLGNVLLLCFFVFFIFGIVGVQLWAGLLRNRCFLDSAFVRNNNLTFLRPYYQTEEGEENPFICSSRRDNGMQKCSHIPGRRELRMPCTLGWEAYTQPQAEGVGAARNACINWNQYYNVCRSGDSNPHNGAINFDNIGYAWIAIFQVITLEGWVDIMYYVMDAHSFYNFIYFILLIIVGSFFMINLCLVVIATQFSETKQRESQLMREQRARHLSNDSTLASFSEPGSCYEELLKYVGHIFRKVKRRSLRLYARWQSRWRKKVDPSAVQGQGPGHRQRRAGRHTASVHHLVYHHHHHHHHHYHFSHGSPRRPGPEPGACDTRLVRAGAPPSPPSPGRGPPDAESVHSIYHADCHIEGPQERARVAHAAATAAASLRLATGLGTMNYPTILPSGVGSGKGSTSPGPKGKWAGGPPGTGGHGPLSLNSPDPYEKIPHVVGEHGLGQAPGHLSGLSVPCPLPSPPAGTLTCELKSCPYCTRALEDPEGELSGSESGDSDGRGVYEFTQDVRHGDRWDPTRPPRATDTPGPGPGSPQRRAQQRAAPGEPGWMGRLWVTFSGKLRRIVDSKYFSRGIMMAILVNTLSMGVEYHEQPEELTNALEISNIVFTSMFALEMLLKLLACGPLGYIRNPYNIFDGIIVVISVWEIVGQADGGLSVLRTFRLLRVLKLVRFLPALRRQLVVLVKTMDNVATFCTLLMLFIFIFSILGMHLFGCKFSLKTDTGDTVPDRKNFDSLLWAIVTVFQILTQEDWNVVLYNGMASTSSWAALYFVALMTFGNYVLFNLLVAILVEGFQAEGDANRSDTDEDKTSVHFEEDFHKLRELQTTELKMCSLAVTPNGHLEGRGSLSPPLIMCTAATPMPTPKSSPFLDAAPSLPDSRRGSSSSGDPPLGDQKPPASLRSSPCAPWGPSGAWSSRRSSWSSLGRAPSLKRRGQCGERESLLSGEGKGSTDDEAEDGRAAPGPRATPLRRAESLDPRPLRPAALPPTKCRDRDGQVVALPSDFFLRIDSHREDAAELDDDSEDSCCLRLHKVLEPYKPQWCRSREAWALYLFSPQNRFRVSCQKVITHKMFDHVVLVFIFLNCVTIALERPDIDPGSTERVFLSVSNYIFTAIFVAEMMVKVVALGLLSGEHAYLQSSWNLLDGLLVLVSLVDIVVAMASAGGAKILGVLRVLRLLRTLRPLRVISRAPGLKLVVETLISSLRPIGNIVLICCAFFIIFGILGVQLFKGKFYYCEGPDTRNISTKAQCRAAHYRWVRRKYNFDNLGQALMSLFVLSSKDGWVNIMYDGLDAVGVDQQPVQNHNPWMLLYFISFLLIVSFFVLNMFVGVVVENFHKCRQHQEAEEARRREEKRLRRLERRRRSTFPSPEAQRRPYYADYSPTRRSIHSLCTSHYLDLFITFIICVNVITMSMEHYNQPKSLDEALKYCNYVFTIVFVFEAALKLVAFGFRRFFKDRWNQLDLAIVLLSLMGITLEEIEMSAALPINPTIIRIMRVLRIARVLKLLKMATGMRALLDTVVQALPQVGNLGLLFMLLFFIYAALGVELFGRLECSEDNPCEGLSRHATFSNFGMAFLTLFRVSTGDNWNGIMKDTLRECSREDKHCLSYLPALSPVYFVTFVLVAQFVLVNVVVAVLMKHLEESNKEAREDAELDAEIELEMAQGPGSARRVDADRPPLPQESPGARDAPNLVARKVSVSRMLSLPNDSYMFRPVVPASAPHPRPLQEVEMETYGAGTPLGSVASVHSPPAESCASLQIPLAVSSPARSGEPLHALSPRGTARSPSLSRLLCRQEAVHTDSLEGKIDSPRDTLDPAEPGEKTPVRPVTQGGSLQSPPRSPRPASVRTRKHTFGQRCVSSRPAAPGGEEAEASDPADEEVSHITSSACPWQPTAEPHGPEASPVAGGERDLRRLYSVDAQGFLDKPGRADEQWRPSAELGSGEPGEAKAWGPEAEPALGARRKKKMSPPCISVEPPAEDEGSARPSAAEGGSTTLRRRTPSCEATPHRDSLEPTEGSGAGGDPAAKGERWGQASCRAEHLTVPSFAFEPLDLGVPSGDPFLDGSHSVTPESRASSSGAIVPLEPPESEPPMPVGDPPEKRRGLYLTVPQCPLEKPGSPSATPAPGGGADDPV

B1: mCherry tagged USP5-K113R mutant (enzyme, human, UniProt P45974-1 1-858, looked up)
chain: MAELSEEALLSVLPTIRVPKAGDRVHKDECAFSFDTPESEGGLYICMNTFLGFGKQYVERHFNKTGQRVYLHLRRTRRPKEEDPATGTGDPPRKKPTRLAIGVEGGFDLSEERFELDEDVKIVILPDYLEIARDGLGGLPDIVRDRVTSAVEALLSADSASRKQEVQAWDGEVRQVSKHAFSLKQLDNPARIPPCGWKCSKCDMRENLWLNLTDGSILCGRRYFDGSGGNNHAVEHYRETGYPLAVKLGTITPDGADVYSYDEDDMVLDPSLAEHLSHFGIDMLKMQKTDKTMTELEIDMNQRIGEWELIQESGVPLKPLFGPGYTGIRNLGNSCYLNSVVQVLFSIPDFQRKYVDKLEKIFQNAPTDPTQDFSTQVAKLGHGLLSGEYSKPVPESGDGERVPEQKEVQDGIAPRMFKALIGKGHPEFSTNRQQDAQEFFLHLINMVERNCRSSENPNEVFRFLVEEKIKCLATEKVKYTQRVDYIMQLPVPMDAALNKEELLEYEEKKRQAEEEKMALPELVRAQVPFSSCLEAYGAPEQVDDFWSTALQAKSVAVKTTRFASFPDYLVIQIKKFTFGLDWVPKKLDVSIEMPEELDISQLRGTGLQPGEEELPDIAPPLVTPDEPKGSLGFYGNEDEDSFCSPHFSSPTSPMLDESVIIQLVEMGFPMDACRKAVYYTGNSGAEAAMNWVMSHMDDPDFANPLILPGSSGPGSTSAAADPPPEDCVTTIVSMGFSRDQALKALRATNNSLERAVDWIFSHIDDLDAEAAMDISEGRSAADSISESVPVGPKVRDGPGKYQLFAFISHMGTSTMCGHYVCHIKKEGRWVIYNDQKVCASEKPPKDLGYIYFYQRVAS
notes: Homo sapiens ubiquitin specific peptidase 5 (USP5), open reading frame of GenBank NM_001098536 in pcDNA3.1, point mutant made by PCR; also called SUMO-resistant USP5-K113R; SUMO2/3 resistant USP5-K113R mutant; source: tsA-201 cells, transfected (lipofectamine 2000), in lysate; not shown: mCherry, N-terminal, kept
Regarding B1, the “fold change of co-precipitated amount against USP5-WT” value was approximately 2.2 fold.

Values taken from publication PMC6712834, “SUMOylation regulates USP5-Cav3.2 calcium channel interactions” (Molecular Brain, 2019).
